Results published in patent publication US20070293451A1, “Regulation ao ApoB by Hsp110 proteins and related compositions and methods” (University of Pittsburgh, priority 2006, published 2007).

B1: Hsp110: human Hsp110 over-expressed from an expression vector in McArdle cells (protein, UniProt Q92598 2-858, looked up)
Heat shock protein 105 kDa: SVVGLDVGSQSCYIAVARAGGIETIANEFSDRCTPSVISFGSKNRTIGVAAKNQQITHANNTVSNFKRFHGRAFNDPFIQKEKENLSYDLVPLKNGGVGIKVMYMGEEHLFSVEQITAMLLTKLKETAENSLKKPVTDCVISVPSFFTDAERRSVLDAAQIVGLNCLRLMNDMTAVALNYGIYKQDLPSLDEKPRIVVFVDMGHSAFQVSACAFNKGKLKVLGTAFDPFLGGKNFDEKLVEHFCAEFKTKYKLDAKSKIRALLRLYQECEKLKKLMSSNSTDLPLNIECFMNDKDVSGKMNRSQFEELCAELLQKIEVPLYSLLEQTHLKVEDVSAVEIVGGATRIPAVKERIAKFFGKDISTTLNADEAVARGCALQCAILSPAFKVREFSVTDAVPFPISLIWNHDSEDTEGVHEVFSRNHAAPFSKVLTFLRRGPFELEAFYSDPQGVPYPEAKIGRFVVQNVSAQKDGEKSRVKVKVRVNTHGIFTISTASMVEKVPTEENEMSSEADMECLNQRPPENPDTDKNVQQDNSEAGTQPQVQTDAQQTSQSPPSPELTSEENKIPDADKANEKKVDQPPEAKKPKIKVVNVELPIEANLVWQLGKDLLNMYIETEGKMIMQDKLEKERNDAKNAVEEYVYEFRDKLCGPYEKFICEQDHQNFLRLLTETEDWLYEEGEDQAKQAYVDKLEELMKIGTPVKVRFQEAEERPKMFEELGQRLQHYAKIAADFRNKDEKYNHIDESEMKKVEKSVNEVMEWMNNVMNAQAKKSLDQDPVVRAQEIKTKIKELNNTCEPVVTQPKPKIESPKLERTPNGPNIDKKEEDLEDKNNFGAEPPHQNGECYPNEKNSVNMDLD
B2: Sse1p: active, recombinant purified yeast Hsp110 homolog Sse1p (GenBank NP_015219) (protein)
chain: STPFGLDLGNNNSVLAVARNRGIDIVVNEVSNRSTPSVVGFGPKNRYLGETGKNKQTSNIKNTVANLKRIIGLDYHHPDFEQESKHFTSKLVELDDKKTGAEVRFAGEKHVFSATQLAAMFIDKVKDTVKQDTKANITDVCIAVPPWYTEEQRYNIADAARIAGLNPVRIVNDVTAAGVSYGIFKTDLPEGEEKPRIVAFVDIGHSSYTCSIMAFKKGQLKVLGTACDKHFGGRDFDLAITEHFADEFKTKYKIDIRENPKAYNRILTAAEKLKKVLSANTNAPFSVESVMNDVDVSSQLSREELEELVKPLLERVTEPVTKALAQAKLSAEEVDFVEIIGGTTRIPTLKQSISEAFGKPLSTTLNQDEAIAKGAAFICAIHSPTLRVRPFKFEDIHPYSVSYSWDKQVEDEDHMEVFPAGSSFPSTKLITLNRTGDFSMAASYTDITQLPPNTPEQIANWEITGVQLPEGQDSVPVKLKLRCDPSGLHTIEEAYTIEDIEVEEPIPLPEDAPEDAEQEFKKVTKTVKKDDLTIVAHTFGLDAKKLNELIEKENEMLAQDKLVAETEDRKNTLEEYIYTLRGKLEEEYAPFASDAEKTKLQGMLNKAEEWLYDEGFDSIKAKYIAKYEELASLGNIIRGRYLAKEEEKKQAIRSKQEASQMAAMAEKLAAQRKAEAEKKEEKKDTEGDVDMD

Legend:
ApoB100 = ApoB100 biogenesis and secretion from McArdle cells (pulse-chase) on Hsp110 over-expression; format: cell-based, rat
Experimental: (§1) FIGS. 9A and 9B show the effect of Hsp110 over-expression on ApoB100 secretion from McArdle cells, a standard rat hepatoma cell model of lipoprotein metabolism. ApoB100 (FIG. 9A) and albumin (FIG. 9B) biogenesis and secretion were assessed by published pulse-chase analytical methods.
(§2) An Hsp110 expression vector was obtained from Dr. John Subjeck (Roswell Park Cancer Center, N.Y.), and either that vector or a vector control was introduced into McArdle cells—a rat hepatoma cell line that also expresses full-length ApoB (that is, ApoB100). […] As a control, there was no effect on albumin secretion from these cells, regardless of whether Hsp110 was over-expressed (FIG. 9B). Furthermore, the over-expression of Hsp110 in the McArdle cells in the presence of a microsomal triglyceride transfer protein (MTP) inhibitor (BMS-200150; Jamil, H., D. A. Gordon, D. C. Eustice, C. M. Brooks, J. K. Dickson, Jr., Y. Chen, B. Ricci, C.-H. Chu, T. W. Harrity, C. P. Ciosek, Jr., S. A. Biller, R. E. Gregg, and J. R. Wetterau. 1996. An inhibitor of the microsomal triglyceride transfer protein inhibits apoB secretion from HepG2 cells. Proc Natl Acad Sci USA. 93, 11991-95) increased the percent of apoB recovered in the lysate and medium fractions from 14% to 28% (data not shown).

albumin = experiment: Albumin secretion from McArdle cells (control); format: cell-based, rat; conditions: Hsp110 over-expressed or not
Experimental: as §1, §2

ApoB48 = experiment: In vitro ApoB48 degradation assay in yeast cytosol with added purified protein; format: biochemical; conditions: purified protein added to wild type (SSE1) or delete (sse1) cytosols
Experimental: In vitro Analysis of ApoB Degradation: ^35S methionine labeled ApoB48 was synthesized in the presence of canine pancreatic microsomes (DPM; Promega, Madison, Wis.) using the SP6-TNT Kit (Promega) and plasmid pSPB48 (see above) as previously described (Gusarova, et al., 2001). The reaction mixture was then layered onto 1 mL SH buffer (0.25M sucrose, 5 mM Hepes, pH 7.4) and centrifuged at 100,000g for 30 min at 4° C. The microsomal pellets were resuspended in 12 μl of 2×PH buffer (40 mM HEPES, pH 7.4, 220 mM KCl, 10 mM MgCl2) and pooled. Cytosol, prepared as previously described (McCracken and Brodsky, 1996), was diluted to a specified concentration and pre-incubated with 0.25 mM MG132 (Peptides International) or an equivalent volume of DMSO for 15 min on ice. Following the pre-incubation, cytosol and ApoB48 were mixed 1:1 with these reagents at final concentrations of, 2 mM ATP, 10 mM creatine phosphate, and 100μg/mL creatine phosphokinase. Aliquots of the reaction were incubated at 37° C. for 5, 15 and 30 min or the indicated times and the reaction was quenched by adding an equal volume of 2×Urea Buffer (125 mM Tris, pH 6.8, 4% SDS, 6M Urea, 1 mM EDTA, 10 mM DTT, 250 mM β-mercaptoethanol, 20% Glycerol) and the mixture was heated at 96° C. for 4 min. […] Phosphorimager data was analyzed using Image Gauge software (Fuji Film Science Lab). […]

Molecule | percent of apoB recovered in the lysate and medium fractions (ApoB100; Hsp110 over-expression in the presence of MTP inhibitor BMS-200150, data not shown) [%] | amount of ApoB100 in cell extracts (ApoB100; especially notable at 30 min time point) | increase in the amount of ApoB 100 secreted (ApoB100; medium, Hsp110 vector vs vector control) [fold] | effect on albumin secretion (albumin) | effect on ApoB48 in vitro (ApoB48)
B1 | 28 | concomitant increase | ~2 | no effect | –
B2 | – | – | – | – | stabilizes ApoB48
